Measurements from EP0910659B1, “ANTIBODIES AGAINST A COMPLEX OF CD4 AND A CHEMOKINE RECEPTOR DOMAIN, AND THEIR USE AGAINST HIV INFECTIONS” (United Biomedical, Inc., priority 1996, dated 1997).

Tests used:
[1] = target: CD4 on the surface of CD4-expressing cells (host cell antigen complex comprising CD4) (human); assay: HPB-ALL cells pre-incubated with MAb 10 µg/mL; competitor biotinylated B4
[2] = target: recombinant soluble CD4 (rsCD4) (human); assay: ELISA, rsCD4-coated wells
[3] = target: rsCD4 preincubated with CC-CKR5 domain 3 peptide p2047a (human) (UniProt P51681); assay: ratio of the rsCD4 IC50 values of the two ELISA inhibition assays
rsCD4 preincubated with CC-CKR5 domain 3 peptide p2047a (human), sequence (P51681 168-199, form in doubt): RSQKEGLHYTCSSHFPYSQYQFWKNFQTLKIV

[4] = target: rsCD4 preincubated with CC-CKR5 domain 3 peptide p2047a (human) (UniProt P51681); assay: ELISA, rsCD4 0.25 µg/mL preincubated with peptide, B4 0.1 µg/mL; against rsCD4 alone
[5] = target: rsCD4 preincubated with CC-CKR3 domain 4 peptide p2082a (human) (UniProt P51677); assay: as above
[6] = target: rsCD4 preincubated with CC-CKR2b domain 3 peptide p2088a (human) (UniProt P41597); assay: as above
rsCD4 preincubated with CC-CKR2b domain 3 peptide p2088a (human), sequence (P41597 182-207, form in doubt): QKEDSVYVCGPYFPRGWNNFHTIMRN

[7] = target: rsCD4 preincubated with CC-CKR2b domain 2 peptide p2087a (human) (UniProt P41597); assay: as above
[8] = target: CD4 on the surface of CD4-expressing cells (host cell antigen complex comprising CD4) (human); assay: HPB-ALL cells pre-incubated with MAb 50 µg/mL, then gp120-FITC (competitor)
[9] = target: rsCD4 preincubated with CC-CKR5 domain 3 peptide p2047a (human) (UniProt P51681); assay: ELISA, rsCD4/CC-CKR5-D3 coated wells
[10] = target: recombinant soluble CD4 (rsCD4) (human); assay: competition ELISA, rsCD4 wells pretreated with p1624a; MAb 50 µg/mL; competitor B4-HRP 50 µg/mL
[11] = target: CD4 on the surface of CD4-expressing cells (host cell antigen complex comprising CD4) (human); assay: indirect immunofluorescence, HPB-ALL cells pre-incubated with gp120 (competitor)
[12] = target: recombinant soluble CD4 (rsCD4) (human); assay: rsCD4 ELISA
[13] = target: CD4 on the surface of CD4-expressing cells (host cell antigen complex comprising CD4) (human); assay: SUP-T cells, biotinylated B4, no competitor
[14] = target: CD4 on the surface of CD4-expressing cells (host cell antigen complex comprising CD4) (human); assay: indirect immunofluorescence, HPB-ALL cells
[15] = target: recombinant soluble CD4 (rsCD4) (human); assay: direct ELISA, rsCD4 wells pretreated with p1624a; B4-HRP 50 µg/mL, PBS instead of competitor
[16] = target: CD4 on the surface of CD4-expressing cells (host cell antigen complex comprising CD4) (human); assay: HPB-ALL cells, biotinylated B4 0.71 µg/mL, no competitor
[17] = target: CD4 on the surface of CD4-expressing cells (host cell antigen complex comprising CD4) (human); assay: cell-based or functional assay
[18] = target: CD4 on the surface of CD4-expressing cells (host cell antigen complex comprising CD4) (human); assay: HPB-ALL cells, biotinylated B4 1:1000 + FITC-avidin, no competitor
[19] = target: recombinant soluble CD4 (rsCD4) (human); assay: rsCD4 ELISA, purified B4 2 µg/mL, no competitor

Q: For monoclonal antibody B4, which % Positive cells (biotinylated B4 staining) [1] is on record?
A: 0%

Q: And the Intensity of staining (biotinylated B4) [1]?
A: 0

Q: And the endpoint binding concentration (OD492nm reading of 1.0) [2]?
A: 2 µg/mL

Q: What about the fold improvement of affinity over MAb B4 for rsCD4 alone [3] of the same substance?
A: 15 fold

Q: What about the degree of enhancement of MAb B4-rsCD4 binding (grade 0 to 8) [4] of the same substance?
A: 5 +

Q: What about the degree of enhancement of MAb B4-rsCD4 binding (grade 0 to 8) [5] of the same substance?
A: 8 +

Q: What about the degree of enhancement of MAb B4-rsCD4 binding (grade 0 to 8) [6] of the same substance?
A: > 4 +

Q: What about the degree of enhancement of MAb B4-rsCD4 binding (grade 0 to 8) [7] of the same substance?
A: > 4 +

Q: And the % of cells stained by gp120-FITC after prior binding with MAb [8]?
A: 0%

Q: And the endpoint binding concentration (OD492nm reading of 1.0) [9]?
A: 0.1 µg/mL

Q: What about the % Inhibition [10] of the same substance?
A: 80%

Q: What about the A492 nm (B4-HRP signal) [10] of the same substance?
A: 0.338 A492

Q: And the % of cells reactive after prior binding of gp120 [11]?
A: > 90%

Q: And the A492 nm reactivity to rsCD4 [12]?
A: 1.42 A492

Q: What about the positive rate [13] of the same substance?
A: 95%

Q: What about the % of HPB-ALL cells reactive [14] of the same substance?
A: > 90%

Q: What about the A492 nm [15] of the same substance?
A: 1.66 A492

Q: And the % Positive cells [16]?
A: > 95%

Q: What about the 50% Inhbt., HIV-1 primary isolate 23135, MT-2 Microplaque Neutralization Assay [17] of the same substance?
A: 0.21 µg/mL

Q: And the 50% Inhbt., HIV-1 primary isolate BR014, MT-2 Microplaque Neutralization Assay [17]?
A: 0.19 µg/mL

Q: And the 50% end point for neutralization of HIV-1 primary isolate (23135) [17]?
A: 0.21 µg/mL

Q: What about the 90% Inhbt., HIV-1 primary isolate 23135, MT-2 Microplaque Neutralization Assay [17] of the same substance?
A: 1.54 µg/mL

Q: And the 90% Inhbt., HIV-1 primary isolate BR014, MT-2 Microplaque Neutralization Assay [17]?
A: 1.63 µg/mL

Q: And the HIV-1 DH-12 (chimp PBL-grown), PBMC Infection Reduction Assay [17]?
A: 3 logs killed

Q: And the HIV-1 DH-12, 50% Inhib, MT-2 Microplaque Assay [17]?
A: 0.33 µg/mL

Q: What about the HIV-1 DH-12, 90% Inhib, MT-2 Microplaque Assay [17] of the same substance?
A: 2.1 µg/mL

Q: And the HIV-2 287, PBMC Infectivity Reduction Assay with MAb B4 at 10 µg/mL [17]?
A: 1.5 logs killed

Q: What about the HIV-2 ROD, 50%, MT2 Microplaque Neutralization Assay [17] of the same substance?
A: 0.7 µg/mL

Q: And the HIV-2 ROD, 90%, MT2 Microplaque Neutralization Assay [17]?
A: 8.5 µg/mL

Q: What about the SHIV 89.6, 50%, p27 Antigen Neutralization Assay [17] of the same substance?
A: 0.088 µg/mL

Q: And the SHIV IIIB, 50%, p27 Antigen Neutralization Assay [17]?
A: 0.679 µg/mL

Q: And the SIV239, 50%, p27 Antigen Neutralization Assay [17]?
A: 1.3 µg/mL

Q: And the SIV251 (huPBMC), 80%, p27 Antigen Neutralization Assay [17]?
A: 1 µg/mL

Q: And the SIV251, 50%, p27 Antigen Neutralization Assay [17]?
A: 2 µg/mL

Q: And the % Positive cells [18]?
A: > 95%

Q: What about the Intensity of staining [18] of the same substance?
A: 2

Q: And the A492 nm [19]?
A: 0.679 A492
